Test results reported in patent publication US20240360201A1 (BIOCYTOGEN PHARMACEUTICALS BEIJING, published 2024).

Target: human CD40 (hCD40-his) (human, UniProt P25942 21-193)
Experiment: SPR Biacore T200; binder captured on protein A chip, target as analyte
Method: Binding affinity to human CD40 of the obtained fusion proteins PDL1-C40-6A7-FV3A (IgG1), PDL1-C40-6A7-FV3A-IgG4, PDL1-C40-6A7-FV3C (IgG1), PDL1-C40-6A7-FV3A1 (IgG1), PDL1-C40-6A7-FV3A2 (IgG1), and PDL1-C40-6A7-FV3A3 (IgG1) were determined by surface plasmon resonance (SPR) using Biacore™ T200 biosensor equipped with pre-immobilized protein A sensor chips. The original anti-CD40 monoclonal antibody C40-6A7 IgG2 (6A7, VH SEQ ID NO: 91, VL SEQ ID NO: 92), which the scFV was derived from, was used as a control.

Sequence of human CD40 (hCD40-his) (P25942 21-193 limits assumed): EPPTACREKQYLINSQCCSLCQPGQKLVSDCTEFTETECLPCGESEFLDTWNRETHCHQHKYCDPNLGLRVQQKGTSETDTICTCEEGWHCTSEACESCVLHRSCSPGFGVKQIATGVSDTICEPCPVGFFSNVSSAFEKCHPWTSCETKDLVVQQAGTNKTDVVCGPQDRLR

B1: C40-6A7 (IgG2) (antibody, V domains shown)
VH: QVQLVQSGAEVKKPGASVKLSCKASGYTFISYYIYWVKQAPGQGLEWIGGINPRNGGTNFNEKFKSRATLTVDTSISTAYMELSRLRSEDTAVYYCTRHGNGVYWGQGTTLTVSS
VL: DVVMTQSPLSLPVTLGQPASISCRSSQSLLHSNGNTYLHWYQQRPGQSPNHLIYQVSNRFSGVPDRFSGSGSGTDFTLKISRVEAEDVGVYFCSQTTHVPWTFGGGTKVEIK
notes: IgG2; also called original anti-CD40 monoclonal antibody
Kd: 3090 pM
koff: 0.00171 s⁻¹
kon: 554000 M⁻¹ s⁻¹

B2: PDL1-C40-6A7-FV3A1 (IgG1) (bispecific antibody)
heavy: EVQLLESGGGLVQPGGSLRLSCAASGFTFSSYIMMWVRQAPGKGLEWVSSIYPSGGITFYADTVKGRFTISRDNSKNTLYLQMNSLRAEDTAVYYCARIKLGTVTTVDYWGQGTLVTVSSASTKGPSVFPLAPSSKSTSGGTAALGCLVKDYFPEPVTVSWNSGALTSGVHTFPAVLQSSGLYSLSSVVTVPSSSLGTQTYICNVNHKPSNTKVDKKVEPKSCDKTHTCPPCPAPELLGGPSVFLFPPKPKDTLMISRTPEVTCVVVDVSHEDPEVKFNWYVDGVEVHNAKTKPREEQYNSTYRVVSVLTVLHQDWLNGKEYKCKVSNKALPAPIEKTISKAKGQPREPQVYTLPPSRDELGGGGSGGGGSDVVMTQSPLSLPVTLGQPASISCRSSQSLLHSNGNTYLHWYQQRPGQSPNHLIYQVSNRFSGVPDRFSGSGSGTDFTLKISRVEAEDVGVYFCSQTTHVPWTFGCGTKVEIKGGGGSGGGGSGGGGSGGGGSQVQLVQSGAEVKKPGASVKLSCKASGYTFISYYIYWVKQAPGQCLEWIGGINPRNGGTNFNEKFKSRATLTVDTSISTAYMELSRLRSEDTAVYYCTRHGNGVYWGQGTTLTVSSGGGGSGGGGSTKNQVSLTCLVKGFYPSDIAVEWESNGQPENNYKTTPPVLDSDGSFFLYSKLTVDKSRWQQGNVFSCSVMHEALHNHYTQKSLSLSPGK
light: QSALTQPASVSGSPGQSITISCTGTSSDVGGYNYVSWYQQHPGKAPKLMIYDVSNRPSGVSNRFSGSKSGNTASLTISGLQAEDEADYYCSSYTSSSTRVFGTGTKVTVLGQPKANPTVTLFPPSSEELQANKATLVCLISDFYPGAVTVAWKADGSPVKAGVETTKPSKQSNNKYAASSYLSLTPEQWKSHRSYSCQVTHEGSTVEKTVAPTECS
notes: IgG1
Kd: 630 pM
koff: 0.000388 s⁻¹
kon: 616000 M⁻¹ s⁻¹

B3: PDL1-C40-6A7-FV3A3 (IgG1) (bispecific antibody)
heavy: EVQLLESGGGLVQPGGSLRLSCAASGFTFSSYIMMWVRQAPGKGLEWVSSIYPSGGITFYADTVKGRFTISRDNSKNTLYLQMNSLRAEDTAVYYCARIKLGTVTTVDYWGQGTLVTVSSASTKGPSVFPLAPSSKSTSGGTAALGCLVKDYFPEPVTVSWNSGALTSGVHTFPAVLQSSGLYSLSSVVTVPSSSLGTQTYICNVNHKPSNTKVDKKVEPKSCDKTHTCPPCPAPELLGGPSVFLFPPKPKDTLMISRTPEVTCVVVDVSHEDPEVKFNWYVDGVEVHNAKTKPREEQYNSTYRVVSVLTVLHQDWLNGKEYKCKVSNKALPAPIEKTISKAKGQPREPQVYTLPPSRDELTKGGGGSGGGGSDVVMTQSPLSLPVTLGQPASISCRSSQSLLHSNGNTYLHWYQQRPGQSPNHLIYQVSNRFSGVPDRFSGSGSGTDFTLKISRVEAEDVGVYFCSQTTHVPWTFGCGTKVEIKGGGGSGGGGSGGGGSGGGGSQVQLVQSGAEVKKPGASVKLSCKASGYTFISYYIYWVKQAPGQCLEWIGGINPRNGGTNFNEKFKSRATLTVDTSISTAYMELSRLRSEDTAVYYCTRHGNGVYWGQGTTLTVSSGGGGSGGGGSNQVSLTCLVKGFYPSDIAVEWESNGQPENNYKTTPPVLDSDGSFFLYSKLTVDKSRWQQGNVFSCSVMHEALHNHYTQKSLSLSPGK
light: QSALTQPASVSGSPGQSITISCTGTSSDVGGYNYVSWYQQHPGKAPKLMIYDVSNRPSGVSNRFSGSKSGNTASLTISGLQAEDEADYYCSSYTSSSTRVFGTGTKVTVLGQPKANPTVTLFPPSSEELQANKATLVCLISDFYPGAVTVAWKADGSPVKAGVETTKPSKQSNNKYAASSYLSLTPEQWKSHRSYSCQVTHEGSTVEKTVAPTECS
notes: IgG1; scFv inserted between EU 360 and 361
Kd: 1040 pM
koff: 0.000379 s⁻¹
kon: 364000 M⁻¹ s⁻¹

B4: PDL1-C40-6A7-FV3A (IgG1) (bispecific antibody)
heavy: EVQLLESGGGLVQPGGSLRLSCAASGFTFSSYIMMWVRQAPGKGLEWVSSIYPSGGITFYADTVKGRFTISRDNSKNTLYLQMNSLRAEDTAVYYCARIKLGTVTTVDYWGQGTLVTVSSASTKGPSVFPLAPSSKSTSGGTAALGCLVKDYFPEPVTVSWNSGALTSGVHTFPAVLQSSGLYSLSSVVTVPSSSLGTQTYICNVNHKPSNTKVDKKVEPKSCDKTHTCPPCPAPELLGGPSVFLFPPKPKDTLMISRTPEVTCVVVDVSHEDPEVKFNWYVDGVEVHNAKTKPREEQYNSTYRVVSVLTVLHQDWLNGKEYKCKVSNKALPAPIEKTISKAKGQPREPQVYTLPPSRDEGGGGSGGGGSDVVMTQSPLSLPVTLGQPASISCRSSQSLLHSNGNTYLHWYQQRPGQSPNHLIYQVSNRFSGVPDRFSGSGSGTDFTLKISRVEAEDVGVYFCSQTTHVPWTFGCGTKVEIKGGGGSGGGGSGGGGSGGGGSQVQLVQSGAEVKKPGASVKLSCKASGYTFISYYIYWVKQAPGQCLEWIGGINPRNGGTNFNEKFKSRATLTVDTSISTAYMELSRLRSEDTAVYYCTRHGNGVYWGQGTTLTVSSGGGGSGGGGSVSLTCLVKGFYPSDIAVEWESNGQPENNYKTTPPVLDSDGSFFLYSKLTVDKSRWQQGNVFSCSVMHEALHNHYTQKSLSLSPGK
light: QSALTQPASVSGSPGQSITISCTGTSSDVGGYNYVSWYQQHPGKAPKLMIYDVSNRPSGVSNRFSGSKSGNTASLTISGLQAEDEADYYCSSYTSSSTRVFGTGTKVTVLGQPKANPTVTLFPPSSEELQANKATLVCLISDFYPGAVTVAWKADGSPVKAGVETTKPSKQSNNKYAASSYLSLTPEQWKSHRSYSCQVTHEGSTVEKTVAPTECS
notes: IgG1; also called G3
Kd: 1090 pM
koff: 0.000427 s⁻¹
kon: 391000 M⁻¹ s⁻¹

B5: PDL1-C40-6A7-FV3A2 (IgG1) (bispecific antibody)
heavy: EVQLLESGGGLVQPGGSLRLSCAASGFTFSSYIMMWVRQAPGKGLEWVSSIYPSGGITFYADTVKGRFTISRDNSKNTLYLQMNSLRAEDTAVYYCARIKLGTVTTVDYWGQGTLVTVSSASTKGPSVFPLAPSSKSTSGGTAALGCLVKDYFPEPVTVSWNSGALTSGVHTFPAVLQSSGLYSLSSVVTVPSSSLGTQTYICNVNHKPSNTKVDKKVEPKSCDKTHTCPPCPAPELLGGPSVFLFPPKPKDTLMISRTPEVTCVVVDVSHEDPEVKFNWYVDGVEVHNAKTKPREEQYNSTYRVVSVLTVLHQDWLNGKEYKCKVSNKALPAPIEKTISKAKGQPREPQVYTLPPSRDELTGGGGSGGGGSDVVMTQSPLSLPVTLGQPASISCRSSQSLLHSNGNTYLHWYQQRPGQSPNHLIYQVSNRFSGVPDRFSGSGSGTDFTLKISRVEAEDVGVYFCSQTTHVPWTFGCGTKVEIKGGGGSGGGGSGGGGSGGGGSQVQLVQSGAEVKKPGASVKLSCKASGYTFISYYIYWVKQAPGQCLEWIGGINPRNGGTNFNEKFKSRATLTVDTSISTAYMELSRLRSEDTAVYYCTRHGNGVYWGQGTTLTVSSGGGGSGGGGSKNQVSLTCLVKGFYPSDIAVEWESNGQPENNYKTTPPVLDSDGSFFLYSKLTVDKSRWQQGNVFSCSVMHEALHNHYTQKSLSLSPGK
light: QSALTQPASVSGSPGQSITISCTGTSSDVGGYNYVSWYQQHPGKAPKLMIYDVSNRPSGVSNRFSGSKSGNTASLTISGLQAEDEADYYCSSYTSSSTRVFGTGTKVTVLGQPKANPTVTLFPPSSEELQANKATLVCLISDFYPGAVTVAWKADGSPVKAGVETTKPSKQSNNKYAASSYLSLTPEQWKSHRSYSCQVTHEGSTVEKTVAPTECS
notes: IgG1; scFv inserted between EU 359 and 360
Kd: 847 pM
koff: 0.000375 s⁻¹
kon: 443000 M⁻¹ s⁻¹

B6: PDL1-C40-6A7-FV3C (IgG1) (bispecific antibody)
heavy: EVQLLESGGGLVQPGGSLRLSCAASGFTFSSYIMMWVRQAPGKGLEWVSSIYPSGGITFYADTVKGRFTISRDNSKNTLYLQMNSLRAEDTAVYYCARIKLGTVTTVDYWGQGTLVTVSSASTKGPSVFPLAPSSKSTSGGTAALGCLVKDYFPEPVTVSWNSGALTSGVHTFPAVLQSSGLYSLSSVVTVPSSSLGTQTYICNVNHKPSNTKVDKKVEPKSCDKTHTCPPCPAPELLGGPSVFLFPPKPKDTLMISRTPEVTCVVVDVSHEDPEVKFNWYVDGVEVHNAKTKPREEQYNSTYRVVSVLTVLHQDWLNGKEYKCKVSNKALPAPIEKTISKAKGQPREPQVYTLPPSRDELTKNQVSLTCLVKGFYPSDIAVEWESNGGGGSGGGGSDVVMTQSPLSLPVTLGQPASISCRSSQSLLHSNGNTYLHWYQQRPGQSPNHLIYQVSNRFSGVPDRFSGSGSGTDFTLKISRVEAEDVGVYFCSQTTHVPWTFGCGTKVEIKGGGGSGGGGSGGGGSGGGGSQVQLVQSGAEVKKPGASVKLSCKASGYTFISYYIYWVKQAPGQCLEWIGGINPRNGGTNFNEKFKSRATLTVDTSISTAYMELSRLRSEDTAVYYCTRHGNGVYWGQGTTLTVSSGGGGSGGGGSGQPENNYKTTPPVLDSDGSFFLYSKLTVDKSRWQQGNVFSCSVMHEALHNHYTQKSLSLSPGK
light: QSALTQPASVSGSPGQSITISCTGTSSDVGGYNYVSWYQQHPGKAPKLMIYDVSNRPSGVSNRFSGSKSGNTASLTISGLQAEDEADYYCSSYTSSSTRVFGTGTKVTVLGQPKANPTVTLFPPSSEELQANKATLVCLISDFYPGAVTVAWKADGSPVKAGVETTKPSKQSNNKYAASSYLSLTPEQWKSHRSYSCQVTHEGSTVEKTVAPTECS
notes: IgG1; scFv inserted between EU 384 and 385
Kd: 865 pM
koff: 0.000472 s⁻¹
kon: 546000 M⁻¹ s⁻¹
